Reference: patent US20250084142A1 (INTARCIA THERAPEUTICS, published 2025)
Starred links: 1 amine or outer side, 2 acyl side, 3 side chain; linkers in the order of their positions; H or OH if unused. Non-standard residues stand in square brackets, D forms with d. Groups on a side chain read outwards from the residue. No end group written: not given here. *: point of attachment. C20 diacid = O=C(O)CCCCCCCCCCCCCCCCCCC(=O)*; Phe(4-F) = N[C@@H](Cc1ccc(F)cc1)C(=O)O; γGlu = O=C(O)[C@H](CCC(=O)[*:2])N[*:1]; NMeY = CN[C@@H](Cc1ccc(O)cc1)C(=O)O; hPhe = N[C@@H](CCc1ccccc1)C(=O)O

T1: NPY5R
T1 sequence (Q15761 1-445, species assumed, looked up): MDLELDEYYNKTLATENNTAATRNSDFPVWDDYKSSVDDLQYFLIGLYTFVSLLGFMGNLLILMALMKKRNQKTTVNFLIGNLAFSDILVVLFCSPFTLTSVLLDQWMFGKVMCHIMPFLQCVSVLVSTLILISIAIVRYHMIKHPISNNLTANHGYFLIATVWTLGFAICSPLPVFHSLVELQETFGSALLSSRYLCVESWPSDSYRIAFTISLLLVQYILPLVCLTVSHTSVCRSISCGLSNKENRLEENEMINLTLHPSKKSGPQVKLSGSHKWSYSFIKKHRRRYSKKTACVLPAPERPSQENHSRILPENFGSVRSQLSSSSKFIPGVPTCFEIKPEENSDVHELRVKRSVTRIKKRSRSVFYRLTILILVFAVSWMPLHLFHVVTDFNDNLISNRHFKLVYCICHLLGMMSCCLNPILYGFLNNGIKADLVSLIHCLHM

T2: NPY2R
T2 sequence (P49146 1-381, species assumed, looked up): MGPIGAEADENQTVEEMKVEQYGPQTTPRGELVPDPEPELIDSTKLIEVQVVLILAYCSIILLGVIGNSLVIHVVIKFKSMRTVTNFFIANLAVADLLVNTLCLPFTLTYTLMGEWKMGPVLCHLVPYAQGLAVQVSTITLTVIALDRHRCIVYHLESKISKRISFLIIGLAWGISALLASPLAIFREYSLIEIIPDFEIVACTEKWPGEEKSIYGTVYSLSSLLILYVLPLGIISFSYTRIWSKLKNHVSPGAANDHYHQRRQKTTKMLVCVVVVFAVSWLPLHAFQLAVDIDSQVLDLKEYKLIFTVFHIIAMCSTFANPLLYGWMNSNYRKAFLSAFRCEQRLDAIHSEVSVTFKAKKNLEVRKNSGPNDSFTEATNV


How the values were obtained:
[1] = biological target: T1, NPY5R; experiment: cell-based or functional assay
[2] = biological target: T2, NPY2R; experiment: cell-based or functional assay

Row | NPY5R pEC50 [1] | NPY2R pEC50 [2] | Binder
1 | 7.9 -Log(EC50, M) | 9.7 -Log(EC50, M) | PKPEAPGK([γGlu-γGlu-C20 diacid])DASPEEWNRKYKDLRHYLNWLTRQRF-NH2 [Compound A68]
2 | 8.5 -Log(EC50, M) | 10.3 -Log(EC50, M) | PKPEAPGK([γGlu-γGlu-C20 diacid])DASPEKWNRYYKDLRHYLNWLTRQRF-NH2 [Compound A67]
3 | 8.3 -Log(EC50, M) | 10.3 -Log(EC50, M) | PKPEAPGK([γGlu-γGlu-C20 diacid])DKSPEEWNRYYKDLRHYLNWLTRQRF-NH2 [Compound A66]
4 | 6 -Log(EC50, M) | 7.5 -Log(EC50, M) | PKPEAPK([γGlu-γGlu-C20 diacid])KDASPEELNRYYADARHYLNWLTRQR[NMeY]-NH2 (N-terminus assumed; SMILES CC(C)C[C@H](NC(=O)[C@H](Cc1ccc(O)cc1)NC(=O)[C@H](Cc1c[nH]cn1)NC(=O)[C@H](CCCNC(=N)N)NC(=O)[C@H](C)NC(=O)[C@H](CC(=O)O)NC(=O)[C@H](C)NC(=O)[C@H](Cc1ccc(O)cc1)NC(=O)[C@H](Cc1ccc(O)cc1)NC(=O)[C@H](CCCNC(=N)N)NC(=O)[C@H](CC(N)=O)NC(=O)[C@H](CC(C)C)NC(=O)[C@H](CCC(=O)O)NC(=O)[C@H](CCC(=O)O)NC(=O)[C@@H]1CCCN1C(=O)[C@H](CO)NC(=O)[C@H](C)NC(=O)[C@H](CC(=O)O)NC(=O)[C@H](CCCCN)NC(=O)[C@H](CCCCNC(=O)CC[C@H](NC(=O)CC[C@H](NC(=O)CCCCCCCCCCCCCCCCCCC(=O)O)C(=O)O)C(=O)O)NC(=O)[C@@H]1CCCN1C(=O)[C@H](C)NC(=O)[C@H](CCC(=O)O)NC(=O)[C@@H]1CCCN1C(=O)[C@H](CCCCN)NC(=O)[C@@H]1CCCN1)C(=O)N[C@@H](CC(N)=O)C(=O)N[C@@H](Cc1c[nH]c2ccccc12)C(=O)N[C@@H](CC(C)C)C(=O)N[C@H](C(=O)N[C@@H](CCCNC(=N)N)C(=O)N[C@@H](CCC(N)=O)C(=O)N[C@@H](CCCNC(=N)N)C(=O)N(C)[C@@H](Cc1ccc(O)cc1)C(N)=O)[C@@H](C)O) [Compound A63]
5 | 8.6 -Log(EC50, M) | 10.3 -Log(EC50, M) | PKPEAPGK([γGlu-γGlu-C20 diacid])DASPEEWNRYYADLRHYLNWLTRQR[Phe(4-F)]-NH2 [Compound A60]
6 | 7.9 -Log(EC50, M) | 8.6 -Log(EC50, M) | PKPEAPK([γGlu-γGlu-C20 diacid])KDASPEELNRYYADARHYLNWLTRQRF-NH2 (N-terminus assumed; SMILES CC(C)C[C@H](NC(=O)[C@H](Cc1ccc(O)cc1)NC(=O)[C@H](Cc1c[nH]cn1)NC(=O)[C@H](CCCNC(=N)N)NC(=O)[C@H](C)NC(=O)[C@H](CC(=O)O)NC(=O)[C@H](C)NC(=O)[C@H](Cc1ccc(O)cc1)NC(=O)[C@H](Cc1ccc(O)cc1)NC(=O)[C@H](CCCNC(=N)N)NC(=O)[C@H](CC(N)=O)NC(=O)[C@H](CC(C)C)NC(=O)[C@H](CCC(=O)O)NC(=O)[C@H](CCC(=O)O)NC(=O)[C@@H]1CCCN1C(=O)[C@H](CO)NC(=O)[C@H](C)NC(=O)[C@H](CC(=O)O)NC(=O)[C@H](CCCCN)NC(=O)[C@H](CCCCNC(=O)CC[C@H](NC(=O)CC[C@H](NC(=O)CCCCCCCCCCCCCCCCCCC(=O)O)C(=O)O)C(=O)O)NC(=O)[C@@H]1CCCN1C(=O)[C@H](C)NC(=O)[C@H](CCC(=O)O)NC(=O)[C@@H]1CCCN1C(=O)[C@H](CCCCN)NC(=O)[C@@H]1CCCN1)C(=O)N[C@@H](CC(N)=O)C(=O)N[C@@H](Cc1c[nH]c2ccccc12)C(=O)N[C@@H](CC(C)C)C(=O)N[C@H](C(=O)N[C@@H](CCCNC(=N)N)C(=O)N[C@@H](CCC(N)=O)C(=O)N[C@@H](CCCNC(=N)N)C(=O)N[C@@H](Cc1ccccc1)C(N)=O)[C@@H](C)O) [Compound A64]
7 | 8.3 -Log(EC50, M) | 10 -Log(EC50, M) | PKPEAPGK([γGlu-γGlu-C20 diacid])DASPEEWNRYYADLRHYLNWLTRQR[hPhe]-NH2 [Compound A61]
8 | 8.3 -Log(EC50, M) | 10 -Log(EC50, M) | PKPEAPGK([γGlu-γGlu-C20 diacid])DASPEEWNRYKKDLRHYLNWLTRQRF-NH2 [Compound A69]
9 | 8.7 -Log(EC50, M) | 10.4 -Log(EC50, M) | PKPEKPGKDASPK([γGlu-γGlu-C20 diacid])EWNRYYKDLRHYLNWLTRQRF-NH2 (N-terminus assumed; SMILES CC(C)C[C@H](NC(=O)[C@H](CC(=O)O)NC(=O)[C@H](CCCCN)NC(=O)[C@H](Cc1ccc(O)cc1)NC(=O)[C@H](Cc1ccc(O)cc1)NC(=O)[C@H](CCCNC(=N)N)NC(=O)[C@H](CC(N)=O)NC(=O)[C@H](Cc1c[nH]c2ccccc12)NC(=O)[C@H](CCC(=O)O)NC(=O)[C@H](CCCCNC(=O)CC[C@H](NC(=O)CC[C@H](NC(=O)CCCCCCCCCCCCCCCCCCC(=O)O)C(=O)O)C(=O)O)NC(=O)[C@@H]1CCCN1C(=O)[C@H](CO)NC(=O)[C@H](C)NC(=O)[C@H](CC(=O)O)NC(=O)[C@H](CCCCN)NC(=O)CNC(=O)[C@@H]1CCCN1C(=O)[C@H](CCCCN)NC(=O)[C@H](CCC(=O)O)NC(=O)[C@@H]1CCCN1C(=O)[C@H](CCCCN)NC(=O)[C@@H]1CCCN1)C(=O)N[C@@H](CCCNC(=N)N)C(=O)N[C@@H](Cc1c[nH]cn1)C(=O)N[C@@H](Cc1ccc(O)cc1)C(=O)N[C@@H](CC(C)C)C(=O)N[C@@H](CC(N)=O)C(=O)N[C@@H](Cc1c[nH]c2ccccc12)C(=O)N[C@@H](CC(C)C)C(=O)N[C@H](C(=O)N[C@@H](CCCNC(=N)N)C(=O)N[C@@H](CCC(N)=O)C(=O)N[C@@H](CCCNC(=N)N)C(=O)N[C@@H](Cc1ccccc1)C(N)=O)[C@@H](C)O) [Compound A70]
10 | 7.3 -Log(EC50, M) | 8.7 -Log(EC50, M) | K([γGlu-γGlu-C20 diacid])PKPEAPGKDASPEEWNRYYADARHYLNWLTRQR[NMeY]-NH2 (N-terminus assumed; SMILES CC(C)C[C@H](NC(=O)[C@H](Cc1ccc(O)cc1)NC(=O)[C@H](Cc1c[nH]cn1)NC(=O)[C@H](CCCNC(=N)N)NC(=O)[C@H](C)NC(=O)[C@H](CC(=O)O)NC(=O)[C@H](C)NC(=O)[C@H](Cc1ccc(O)cc1)NC(=O)[C@H](Cc1ccc(O)cc1)NC(=O)[C@H](CCCNC(=N)N)NC(=O)[C@H](CC(N)=O)NC(=O)[C@H](Cc1c[nH]c2ccccc12)NC(=O)[C@H](CCC(=O)O)NC(=O)[C@H](CCC(=O)O)NC(=O)[C@@H]1CCCN1C(=O)[C@H](CO)NC(=O)[C@H](C)NC(=O)[C@H](CC(=O)O)NC(=O)[C@H](CCCCN)NC(=O)CNC(=O)[C@@H]1CCCN1C(=O)[C@H](C)NC(=O)[C@H](CCC(=O)O)NC(=O)[C@@H]1CCCN1C(=O)[C@H](CCCCN)NC(=O)[C@@H]1CCCN1C(=O)[C@@H](N)CCCCNC(=O)CC[C@H](NC(=O)CC[C@H](NC(=O)CCCCCCCCCCCCCCCCCCC(=O)O)C(=O)O)C(=O)O)C(=O)N[C@@H](CC(N)=O)C(=O)N[C@@H](Cc1c[nH]c2ccccc12)C(=O)N[C@@H](CC(C)C)C(=O)N[C@H](C(=O)N[C@@H](CCCNC(=N)N)C(=O)N[C@@H](CCC(N)=O)C(=O)N[C@@H](CCCNC(=N)N)C(=O)N(C)[C@@H](Cc1ccc(O)cc1)C(N)=O)[C@@H](C)O) [Compound A4]
